The source of these data is paper PMC3477848 (Biochemistry, 2012).

Where two headings read alike, the source gives them in different places.

Common to all, as to test: fluorescence anisotropy
On the technique in general: In fluorescence polarisation assays a small probe gives low polarisation when free and higher when bound to something large.

The target of series [1] is T1, Dpo1 exo- (SsoDpo1, B-family DNA polymerase) (Sulfolobus solfataricus, UniProt P26811 1-882, D231A;D318A).
T1 sequence: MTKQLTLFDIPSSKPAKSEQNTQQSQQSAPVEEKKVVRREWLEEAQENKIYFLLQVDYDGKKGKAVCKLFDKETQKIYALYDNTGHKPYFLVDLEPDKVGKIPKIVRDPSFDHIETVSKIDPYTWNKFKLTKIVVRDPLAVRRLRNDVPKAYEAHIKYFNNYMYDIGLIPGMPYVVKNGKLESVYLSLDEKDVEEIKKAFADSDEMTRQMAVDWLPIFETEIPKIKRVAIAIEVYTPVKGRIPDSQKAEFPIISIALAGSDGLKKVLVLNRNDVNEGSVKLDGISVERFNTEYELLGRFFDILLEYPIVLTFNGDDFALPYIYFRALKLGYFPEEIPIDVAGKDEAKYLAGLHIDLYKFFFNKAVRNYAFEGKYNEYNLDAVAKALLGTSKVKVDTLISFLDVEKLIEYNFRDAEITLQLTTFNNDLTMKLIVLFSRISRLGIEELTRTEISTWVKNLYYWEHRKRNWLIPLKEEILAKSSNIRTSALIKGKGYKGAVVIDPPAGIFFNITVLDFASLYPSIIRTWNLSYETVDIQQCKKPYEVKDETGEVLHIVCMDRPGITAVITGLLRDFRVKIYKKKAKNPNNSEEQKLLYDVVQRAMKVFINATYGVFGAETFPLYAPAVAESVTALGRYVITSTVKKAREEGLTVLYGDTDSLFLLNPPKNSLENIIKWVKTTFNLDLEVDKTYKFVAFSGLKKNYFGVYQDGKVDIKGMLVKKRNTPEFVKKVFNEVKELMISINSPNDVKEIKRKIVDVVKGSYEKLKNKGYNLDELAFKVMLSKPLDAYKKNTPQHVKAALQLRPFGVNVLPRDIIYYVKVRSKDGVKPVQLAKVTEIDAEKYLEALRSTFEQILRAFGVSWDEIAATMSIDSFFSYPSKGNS

For series [2], the target named is T1, Dpo1 exo- (SsoDpo1, B-family DNA …). This is another data set of the same source.
In series [3] the target is T2, Dpo4 (SsoDpo4, Y-family DNA polymerase) (Sulfolobus solfataricus, UniProt Q97W02 1-352).
T2 sequence: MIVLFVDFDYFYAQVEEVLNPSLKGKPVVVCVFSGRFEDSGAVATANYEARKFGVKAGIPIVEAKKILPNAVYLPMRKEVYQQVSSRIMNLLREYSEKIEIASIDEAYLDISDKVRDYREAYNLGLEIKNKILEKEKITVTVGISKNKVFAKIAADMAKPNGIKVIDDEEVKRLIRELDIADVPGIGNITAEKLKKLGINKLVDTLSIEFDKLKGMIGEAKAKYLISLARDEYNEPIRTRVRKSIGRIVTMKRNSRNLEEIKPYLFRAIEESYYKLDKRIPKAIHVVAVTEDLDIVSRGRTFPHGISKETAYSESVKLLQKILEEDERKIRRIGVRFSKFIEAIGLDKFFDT

Series [4] has as its target T1, Dpo1 exo- (SsoDpo1, B-family DNA …). This is another data set of the same source.
Series [5] has as its target T2, Dpo4 (SsoDpo4, Y-family DNA polymerase). This is another data set of the same source.
For series [6], the target named is T1, Dpo1 exo- (SsoDpo1, B-family DNA …). This is another data set of the same source.
The target in series [7] is T2, Dpo4 (SsoDpo4, Y-family DNA polymerase). This is another data set of the same source.
The target is the same in series [8]. This is another data set of the same source.

For TTTTTTTTTTCCCGGGCCGGCGTTTCGCCGGCCCGGG (structured_DNA) [37-nt hairpin primer-template, 5'-Cy3], the Kd (usually the constant that tells how readily two partners part at equilibrium) is 322 ± 23 nM in series [1]; 105 ± 3 nM in series [2]; 444 ± 115 nM in series [3]; 208 ± 22 nM in series [4]; 125 ± 51 nM in series [5]; 144 ± 15 nM in series [6]. Further, the Kd in series [7] was found to be 133 ± 26 nM; in series [8], 140 ± 66 nM.
